Data: article PMC6005658 (2017)
Where two headings read alike, the source gives them in different places. Each block holds one binder with its values, some of them ahead of it. *1 amine or outer side, *2 acyl side, *3 side chain or, on linkers, in order; H or OH if unused. Bridges are numbered along the chain shown (N, C = ends). [ ]: non-standard residue; d: D form. Tyr(All) = C=CCOc1ccc(C[C@H](N[*:1])C(=O)[*:2])cc1

What was measured:
Test in all cases: radioligand binding
[1] = biological target: T1, arodyn analog 4 (staple 2-3; also: RCM olefin trans)
T1 chain: Ac-F[Tyr(All)][Tyr(All)]RLRRIRPK-NH2

[2] = biological target: T2, arodyn analog 5
T2 chain: Ac-[Tyr(All)]FFRLRRIRPK-NH2

[3] = biological target: T3, arodyn analog 7 (SMILES …)
T3 chain: Ac-FF[Tyr(All)]RLRRIRPK-NH2

[4] = biological target: T4, arodyn analog 3 (staple 1-2; also: RCM olefin trans)
T4 chain: Ac-[Tyr(All)][Tyr(All)]FRLRRIRPK-NH2

[5] = biological target: T5, arodyn analog 6 (SMILES …)
T5 chain: Ac-F[Tyr(All)]FRLRRIRPK-NH2

[6] = biological target: T1, arodyn analog 4
[7] = biological target: T2, arodyn analog 5
[8] = biological target: T3, arodyn analog 7
[9] = biological target: T4, arodyn analog 3
[10] = biological target: T5, arodyn analog 6

Ki [1]: 903 nM
Ki [2]: 1170 nM
Ki [3]: 1430 nM
Ki [4]: 1920 nM
Ki [5]: 1460 nM
B1: μ opioid receptor (protein)
chain: MDSSTGPGNTSDCSDPLAQASCSPAPGSWLNLSHVDGNQSDPCGLNRTGLGGNDSLCPQTGSPSMVTAITIMALYSIVCVVGLFGNFLVMYVIVRYTKMKTATNIYIFNLALADALATSTLPFQSVNYLMGTWPFGTILCKIVISIDYYNMFTSIFTLCTMSVDRYIAVCHPVKALDFRTPRNAKIVNVCNWILSSAIGLPVMFMATTKYRQGSIDCTLTFSHPTWYWENLLKICVFIFAFIMPVLIITVCYGLMILRLKSVRMLSGSKEKDRNLRRITRMVLVVVAVFIVCWTPIHIYVIIKALITIPETTFQTVSWHFCIALGYTNSCLNPVLYAFLDENFKRCFREFCIPTSSTIEQQNSTRVRQNTREHPSTANTVDRTNHQLENLEAETAPLP

Ki [6]: 55.4 nM
Ki [7]: 83.3 nM
Ki [8]: 134 nM
Ki [9]: 71.7 nM
Ki [10]: 66.3 nM
B2: κ opioid receptor (protein)
chain: MESPIQIFRGEPGPTCAPSACLLPNSSSWFPNWAESDSNGSVGSEDQQLEPAHISPAIPVIITAVYSVVFVVGLVGNSLVMFVIIRYTKMKTATNIYIFNLALADALVTTTMPFQSAVYLMNSWPFGDVLCKIVISIDYYNMFTSIFTLTMMSVDRYIAVCHPVKALDFRTPLKAKIINICIWLLASSVGISAIVLGGTKVREDVDVIECSLQFPDDEYSWWDLFMKICVFVFAFVIPVLIIIVCYTLMILRLKSVRLLSGSREKDRNLRRITKLVLVVVAVFIICWTPIHIFILVEALGSTSHSTAVLSSYYFCIALGYTNSSLNPVLYAFLDENFKRCFRDFCFPIKMRMERQSTNRVRNTVQDPASMRDVGGMNKPV
